This passage reports incorporation of tritiated thymidine (in-vitro lymphoproliferative response) (stimulation index) results from patent publication US6123948.

The assay deals with HPV-6 L2E7 fusion protein (encoded by plasmid pGW53: pelB leader, HPV-6 L2, HPV-6 E7, His Tag) (human papillomavirus type 6 (HPV-6), clinical isolate H26) (UniProt P06464).

As for “draining (axillary) lymph node cells from B6CBA mice immunized with L2E7/Alum (cells without a defined receptor)”, the incorporation of tritiated thymidine (in-vitro lymphoproliferative response) (stimulation index) turned out to be 50.
